In paper PMC1666580 (The Journal of Cell Biology, 2006):

Target: T1, bacterially expressed human SDC1 ectodomain (hS1ED) (human, UniProt P18827 23-254)
T1 sequence (looked up): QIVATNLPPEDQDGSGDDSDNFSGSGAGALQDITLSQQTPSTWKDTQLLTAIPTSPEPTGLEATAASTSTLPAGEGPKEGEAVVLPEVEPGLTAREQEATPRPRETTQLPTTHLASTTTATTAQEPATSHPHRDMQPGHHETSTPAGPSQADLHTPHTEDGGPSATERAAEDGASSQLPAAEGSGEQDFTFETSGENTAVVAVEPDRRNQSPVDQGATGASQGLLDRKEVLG
Assay: pull-down

B1: lacritin-intein fusion protein (lacritin coupled to chitin beads via chitin-binding intein) (ligand, human, UniProt Q9GZZ8 20-138, looked up)
chain: EDASSDSTGADPAQEAGTSKPNEEISGPAEPASPPETTTTAQETSAAAVQGTAKVTSSRQELNPLKSIVEKSILLTEQALAKAGKGMHGGVPGGKQFIENGSEFAQKLLKKFSLLKPWA
  binding result: binds
